Binding result and Kd data for one molecule are collected here from publication PMC3184076 (PLoS ONE, 2011).

The target in one assay is T1, JR-FL gp140 (HIV-1 subtype B, JR-FL, UniProt Q75760, strain).
T1 construct: also called JR-FL gp140 envelope protein; source: generated as described [41]
Briefly: ELISA. (In general: ELISA stands for enzyme-linked immunosorbent assay.)

Another assay concerns the target T2, Centromere B autoantigen (Homo sapiens (assumed), UniProt P07199).
T2 construct: also called centromere B autoantigens
In words: AtheNA Multi-Lyte ANA II Test Kit (autoantigen immunoassay); kit of Zeus Scientific, per the manufacturer's instructions.

Assay [1] concerns the target T3, MPR.03 biotinylated peptide (HIV-1, synthetic MPER sequence, strain …).
T3 construct: also called MPR.03 peptide; MPER peptide; source: synthetic peptide, bought: CPC Scientific Inc
In words: SPR. The following applies: both partners purified.

Another assay addresses T4, MPER656 peptide (HIV-1, strain  (residues …)).
T4 construct: also called wild type MPER656 peptide
T4 chain: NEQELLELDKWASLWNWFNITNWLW
In words: SPR. To be noted: both partners purified.

In a further assay the target is MPER26 peptide (HIV-1, strain  (residues …, biotin on the N-terminus)). In words: SPR. To be noted: both partners purified.

T2 sequence (P07199 whole entry): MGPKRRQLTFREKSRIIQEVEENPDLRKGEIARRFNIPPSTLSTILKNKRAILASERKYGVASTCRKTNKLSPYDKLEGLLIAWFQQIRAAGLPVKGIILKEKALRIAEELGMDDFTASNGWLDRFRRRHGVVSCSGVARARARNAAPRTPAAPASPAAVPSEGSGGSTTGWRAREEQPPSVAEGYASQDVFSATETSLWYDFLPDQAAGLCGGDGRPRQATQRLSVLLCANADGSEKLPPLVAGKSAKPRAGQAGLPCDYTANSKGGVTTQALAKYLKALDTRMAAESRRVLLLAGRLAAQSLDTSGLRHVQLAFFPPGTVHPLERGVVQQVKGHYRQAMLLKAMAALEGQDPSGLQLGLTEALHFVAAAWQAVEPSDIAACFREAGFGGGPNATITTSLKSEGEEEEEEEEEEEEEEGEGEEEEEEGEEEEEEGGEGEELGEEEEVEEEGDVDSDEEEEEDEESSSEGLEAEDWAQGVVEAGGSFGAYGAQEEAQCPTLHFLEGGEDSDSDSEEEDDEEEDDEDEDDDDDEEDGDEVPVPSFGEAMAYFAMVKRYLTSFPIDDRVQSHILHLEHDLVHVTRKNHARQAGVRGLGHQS

B1: CAP206-CH12 recombinant human monoclonal antibody (antibody, V domains shown)
VH: QVQLVQSGAEVKKPGSSVKLSCKASGGTFGSYSVTWVRQAPGQTFEWVGRIVPWVGVPNYAPKFQGRVTITADKSSTVYMELTSLRFEDTAVYYCATAYEASGLSYYYYMDDWGKGTTVTVSS
VL: EIVLTQSPGTLSLSPGERATLSCRASQSVTSSYLAWFRHKPGQAPRLLIYGASYRGTGIPDRISGSGSGTDFTLTISRLEPEDFAVYYCQHYGGSPGMYTFGQGTRLEIK
notes: also called CAP206-CH12 mAb; CAP-206-CH12 mAb
For orientation: Kd means the free concentration of one partner at which half of the binding sites on the other are occupied at equilibrium, for simple one-to-one binding. A high value points to weaker binding. For the molecule B1, the binding result is recorded as “no binding” with JR-FL gp140 and “binds” in the assay with Centromere B autoantigen. The Kd is 7.3 nM in assay [1], 5.15 nM with MPER656 peptide and 4.95 nM with MPER26 peptide.
